cAMP; CaM from pTr-CaM (nmol/mg dry weigth), β gal; CaM from pTr-CaM and β-galactosidase (relative units) data for two substances are collected here from patent US20170204402A1.

What all share (test): cell-based or functional assay
In experiment [1] the target is AC-GFP hybrid protein (wild-type AC fused at its C-terminus to GFP, from plasmid pCm-AC-GFP) (Bordetella pertussis) (UniProt J7QLC0).
Experiment [2] deals with ACM247-GFP hybrid protein (from plasmid pCm-ACM247-GFP) (Bordetella pertussis) (UniProt J7QLC0).
In experiment [3] the target is ACM335-GFP hybrid protein (from plasmid pCm-ACM335-GFP) (Bordetella pertussis).
Experiment [4] concerns the target AC (wild-type, from plasmid pCm-AC, no fused moiety) (Bordetella pertussis) (UniProt J7QLC0).
Experiment [5] has as its target ACM335 (from plasmid pCm-ACM335, no fused moiety) (Bordetella pertussis) (UniProt J7QLC0).
The target of experiment [6] is ACM335-FKBP hybrid protein (from plasmid pCm-ACM335-FKBP) (Bordetella pertussis) (UniProt P62942).

Consider “CaM (from plasmid pTr-CaM, not fused to a moiety of interest) (from UniProt P0DP23 2-149)”, for which the cAMP; CaM from pTr-CaM (nmol/mg dry weigth) was more than 250 in experiment [1] and less than 0.1 in experiment [2]. The figures for the β gal; CaM from pTr-CaM in experiment [1], in experiment [2] and in experiment [3] were 106 Rel. Units, 1 Rel. Units and 80 Rel. Units, respectively.
Turning to “CaMVU8 (VU-8 calmodulin, from plasmid pCaMVU8) (from UniProt P0DP23 2-149)”, the β-galactosidase (relative units) was determined as 6 in experiment [4]; 5 in experiment [1]; 7 in experiment [5]; 6 in experiment [6]; 6 in experiment [3].
